Measured values published in patent US20030100489.
Residue numbers refer to the chain shown, from its start.

B1: CDK4 (wild-type) (protein)
chain: MATSRYEPVAEIGVGAYGTVYKARDPHSGHFVALKSVRVPNGGGGGGGLPISTVREVALLRRLEAFEHPNVVRLMDVCATSRTDREIKVTLVFEHVDQDLRTYLDKAPPPGLPAETIKDLMRQFLRGLDFLHANCIVHRDLKPENILVTSGGTVKLADFGLARIYSYQMALTPVVVTLWYRAPEVLLQSTYATPVDMWSVGCIFAEMFRRKPLFCGNSEADQLGKIFDLIGLPPEDDWPRDVSLPRGAFPPRGPRPVQSVVPEMEESGAQLLLEMLTFNPHKRISAFRALQHSYLHKDEGNPE
B2: CDK4 Arg24-Cys mutant (protein)
chain: B1 chain with R24C

How the values were obtained:
p16 = biological target: T1, p16
T1 chain: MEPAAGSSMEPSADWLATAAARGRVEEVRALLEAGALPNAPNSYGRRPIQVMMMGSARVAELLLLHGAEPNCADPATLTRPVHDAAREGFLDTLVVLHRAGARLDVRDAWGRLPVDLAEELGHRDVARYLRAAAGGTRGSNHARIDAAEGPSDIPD

p15 = biological target: T2, p15
T2 chain: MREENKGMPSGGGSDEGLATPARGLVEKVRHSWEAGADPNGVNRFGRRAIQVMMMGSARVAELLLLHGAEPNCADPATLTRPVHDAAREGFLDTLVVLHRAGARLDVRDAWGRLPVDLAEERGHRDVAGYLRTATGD

GST-p15 = biological target: T3, GST-p15
T3 chain: T2 chain

GST-p16 fusion protein = biological target: T4, GST-p16 fusion protein
T4 chain: T1 chain

p21, P38936, sequence (P38936 whole entry, the tested form may be a part): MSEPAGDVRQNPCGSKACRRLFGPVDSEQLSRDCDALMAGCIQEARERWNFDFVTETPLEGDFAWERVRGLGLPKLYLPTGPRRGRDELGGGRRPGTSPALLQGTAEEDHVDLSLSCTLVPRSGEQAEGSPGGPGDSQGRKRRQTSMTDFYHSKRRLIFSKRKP

Row | Protein | CDK4 kinase activity (GST-RB phosphorylation) (p16) | ability of CDK4 to phosphorylate RB (p16) | RB phosphorylation by cyclin D/CDK4 (GST-RB substrate) (p21, P38936) | CDK4 kinase activity (GST-RB phosphorylation) (p15) | kinase activity of CDK4 (GST-RB phosphorylation) (GST-p15) | kinase activity of CDK4 (GST-RB phosphorylation) (GST-p16 fusion protein) | CDK4 kinase activity (GST-RB phosphorylation) (p21, P38936) | CDK4 kinase activity (GST-RB phosphorylation) (p27)
1 | B1 | upon addition of increasing amounts of either p16- or p15containing lysate to the CDK4/cyclin D mixture, the wild-type CDK4 was inhibited | In response to increasing amounts of p16, corresponding decreases in the ability of CDK4 to phosphorylate RB was observed | Addition of increasing amounts of p21 resulted in the accumulation of cyclin D/CDK4/p21 ternary complexes with a corresponding inhibition of RB phosphorylation | upon addition of increasing amounts of either p16- or p15containing lysate to the CDK4/cyclin D mixture, the wild-type CDK4 was inhibited | Like p16, the p15-GST fusion protein was able to inhibit the kinase activity of CDK4 | Like p16, the p15-GST fusion protein was able to inhibit the kinase activity of CDK4 | – | –
2 | B2 | the mutant CDK4 was relatively unaffected | – | – | the mutant CDK4 was relatively unaffected | – | – | the particular mutation, Arg24-Cys, did not effect the binding or inhibitory ability of either of those proteins | the particular mutation, Arg24-Cys, did not effect the binding or inhibitory ability of either of those proteins
